Substitutions are numbered along the chain they refer to.
What was measured:
[1] = target: polytropic Xpr1 receptor on NIH3T3 murine cells (murine, UniProt Q9Z0U0); test: cell-based or functional assay
APJ = APJ (Homo sapiens (Human), UniProt P35414); test: cell-based or functional assay
D17 = test: Titer on D17 dog cells; format: cell-based; conditions: for Titer, D17: Titer Experiment 1, D17 dog cells
Procedure: (§1) Transfections were done by calcium phosphate precipitation method, described by Graham and van der Eb (Graham and van der Eb, 1973) leaving the calcium precipitate on the cells for 24 hours. 293T cells were transfected using 8 μg of envelope expression plasmid, 2 μg gagpol expression plasmid (Morita et al., 2000) and 1 μg of an EGFP expressing plasmid. EGFP was included as a visual aid to determine the success of transfections. Medium on the transfected cells was renewed every day until it was used for transduction, usually between 48 and 72 hours after transfection, depending on the number of green fluorescing cells.
(§2) The day before transduction, medium was changed from fetal calf serum to newborn calf serum containing medium. Semi-packaging cells (Bahrami et al., 2003) were seeded at concentration of 10^4 cells/cm^2 24 hours before transduction.
(§3) Supernatant from transfected cells was filtered (0.22μ). The supernatant with 6 μg/mL polybrene was added to the target cells. 24 hours later, the infected cells were selected using medium described before containing 600 μg/mL G418 for 10 days.

NIH 3T3 MCF 247 = test: Titer on NIH 3T3 cells infected with MCF 247 (blocked polytropic receptor); format: cell-based, mouse; conditions: Titer Experiment 1; NIH 3T3 infected with MCF 247
Procedure: FIG. 24. The SL3-2 chimeric envelopes can use two different receptors. […] NIH3T3: Murine cells, NIH3T3+MCF247: murine cells infected with MCF247, thus having a blocked polytropic receptor, D17: Dog cells, D17-APJ: Dog cells expressing APJ, D17-APJ-6 uM Apelin 13: Dog cells expressing APJ incubated with 6 uM apelin-13 peptide for 1 h.
as §1, §2
Supernatant from transfected cells was filtered (0.22μ). The supernatant with 6 μg/mL polybrene was added to the target cells. […]

NIH 3T3 = test: Titer (transduction) of chimeric envelope constructs on NIH 3T3 cells; format: cell-based, mouse; conditions: Titer Experiment 1; NIH 3T3 mouse cells
Procedure: as §1, §2, §3

D17 APJ = test: Titer on D17 cells expressing APJ; format: cell-based, dog; conditions: for Titer, D17 APJ: Titer Experiment 1, D17 cells expressing APJ
Procedure: as §1, §2, §3
The ability of redirecting the retroviral fusion machinery to a desired receptor would have wide biotechnological and potentially also nanotechnological applications. However, the regulatory mechanisms that interconnect receptor binding with fusion are poorly understood, which has made intelligent engineering of the envelope protein difficult. […] Using the envelope protein of the SL3-2 murine leukemia virus isolate (Pedersen et al., 1981) as a backbone and insertion of the 13 amino acid peptide ligand apelin by structure based design, we achieved efficient membrane fusion in a manner dependent upon APJ, the receptor for apelin (Fan et al., 2003; Kawamata et al., 2001) (FIG. 12). APJ belongs to the large family of G-protein-coupled receptors (GPCRs) involved in cell signaling with more than 1000 members in man (Puffer et al., 2000). All GPCRs are characterized by having 7 transmembrane helices (7-TM). Some of the receptors respond to peptide ligands such as apelin. […]

human cells = test: Infection of human cells; format: cell-based; conditions: qualitative

B1: SL3-2/apelin chimeric envelope peptide, "Apelin@155 RT" (other)
chain: VQHDSPHQVFNVTWRVTNLMTGQTANATSLLGTMTDAFPKLYFDLCDLIGDDWDETGLGCRTPGGRKRARIFDFYVCPGHTVLAGCGGPREGYCGKWGCETTGQAYWKPSSSWDLISLKRGNTQGIYQCSGGSGQRPRLSHKGPMPFSGGSGCGPCYDSSVVSSSAQGATPGGRCNPLVLEFTDAGKRASWDASKAWGLRLYRSTRTDPVTRFSLTRQVLNIGPRVPIGPNPVIIDQLPPSRPVQVMLPRPPQPPPPGAASTVPETAPPSQQPGTGDRLLNLVNGAYQALNLTSPDKTQECWLCLVAGPPYYEGVAVLGTYSNHTSAPANCSVASQHKLTLSEVTGQGLCVGAVPKTHQALCNTTQKTSNGSYYLAAPAGTIWACNTGLTPCLSTTVLDLTTDYCVLVELWPKVTYHSPGYVYGQFEEKTKYKREPVSLTLALLLGGLTMGGIAAGVGTGTTALVATQQFQQLQAAMQDDLKEVEKSITNLERSLTSLSEVVLQNRRGLDLLFLKEGGLCAALKEECCFYADHTGLVRDSMAKLRERLSQRQKLFESQQGWFEGLFNKSPWFTTLISTIMGPLIILLLILLFGPCILNHLVQFIKDRVSVVQALVLTQQYHQLKTIEDCESRE
In the case of B1, the “Titer on NIH 3T3 (Titer Experiment 1; unit not given)” value [1] is reported as 500000 and the “Titer on D17 APJ (Titer Experiment 1; unit not given)” value (APJ) is reported as 1750.

B2: SL3-2/apelin chimeric envelope peptide, "Apelin@155 GI" (other)
chain: B1 chain with R206G, T207I
In the case of B2, the “Titer on NIH 3T3 (Titer Experiment 1; unit not given)” value [1] is reported as 750000 and the “Titer on D17 APJ (Titer Experiment 1; unit not given)” value (APJ) is reported as 400.

B3: 155GI (protein)
chain: B1 chain with R206G, T207I
For B3, the “Titer, D17” value (D17) was 2.5, the “Titer, NIH 3T3 MCF 247” value (NIH 3T3 MCF 247) was 0.25 × 10^1 and the “Titer, NIH 3T3” value (NIH 3T3) was 7.5 × 10^5. For the same molecule, the “Titer, D17 APJ” value (D17 APJ) was 4 × 10^2.

B4: AP@155: SL3-2 envelope with apelin inserted at position 155 (variant not specified) (protein)
chain: B1 chain with R206G, T207I
In the case of B4, the “APJ-dependent entry / membrane fusion into D17 dog cells” value (D17 APJ; qualitative, FIG. 12) is reported as “suboptimal relative to AP@165”.

B5: SL3-2/apelin chimeric envelope polypeptide 'AP165 RT' (other)
chain: VQHDSPHQVFNVTWRVTNLMTGQTANATSLLGTMTDAFPKLYFDLCDLIGDDWDETGLGCRTPGGRKRARIFDFYVCPGHTVLAGCGGPREGYCGKWGCETTGQAYWKPSSSWDLISLKRGNTPKGQGPCYDSSGGSGQRPRLSHKGPMPFSGGSGSSSAQGATPGGRCNPLVLEFTDAGKRASWDASKAWGLRLYRSTRTDPVTRFSLTRQVLNIGPRVPIGPNPVIIDQLPPSRPVQVMLPRPPQPPPPGAASTVPETAPPSQQPGTGDRLLNLVNGAYQALNLTSPDKTQECWLCLVAGPPYYEGVAVLGTYSNHTSAPANCSVASQHKLTLSEVTGQGLCVGAVPKTHQALCNTTQKTSNGSYYLAAPAGTIWACNTGLTPCLSTTVLDLTTDYCVLVELWPKVTYHSPGYVYGQFEEKTKYKREPVSLTLALLLGGLTMGGIAAGVGTGTTALVATQQFQQLQAAMQDDLKEVEKSITNLERSLTSLSEVVLQNRRGLDLLFLKEGGLCAALKEECCFYADHTGLVRDSMAKLRERLSQRQKLFESQQGWFEGLFNKSPWFTTLISTIMGPLIILLLILLFGPCILNHLVQFIKDRVSVVQALVLTQQYHQLKTIEDCESRE
With B5 the “Titer on NIH 3T3 (Titer Experiment 1; unit not given)” value [1] was 3e+06 and the “Titer on D17 APJ (Titer Experiment 1; unit not given)” value (APJ) was 2.5e+06.

B6: SL3-2/apelin chimeric envelope AP@165 GI (other)
chain: B5 chain with R200G, T201I
In the case of B6, the “Titer, D17” value (D17) is reported as 1.25 × 10^1, the “Titer on NIH 3T3 (Titer Experiment 1; unit not given)” value [1] is reported as 4e+06 and the “Titer on D17 APJ (Titer Experiment 1; unit not given)” value (APJ) is reported as 1.25e+06. The “Titer, NIH 3T3 MCF 247” value (NIH 3T3 MCF 247) was 0, the “Titer, NIH 3T3” value (NIH 3T3) was 4 × 10^6 and the “Titer, D17 APJ” value (D17 APJ) was 1.25 × 10^6.

B7: SL3-2GI (protein)
chain: VQHDSPHQVFNVTWRVTNLMTGQTANATSLLGTMTDAFPKLYFDLCDLIGDDWDETGLGCRTPGGRKRARIFDFYVCPGHTVLAGCGGPREGYCGKWGCETTGQAYWKPSSSWDLISLKRGNTPKGQGPCYDSSVVSSSAQGATPGGRCNPLVLEFTDAGKRASWDASKAWGLRLYRSTGIDPVTRFSLTRQVLNIGPRVPIGPNPVIIDQLPPSRPVQIMLPRPPQPPPPGAASTVPETAPPSQQPGTGDRLLNLVNGAYQALNLTSPDKTQECWLCLVAGPPYYEGVAVLGTYSNHTSAPANCSVASQHKLTLSEVTGQGLCVGAVPKTHQALCNTTQKTSNGSYYLAAPAGTIWACNTGLTPCLSTTVLDLTTDYCVLVELWPKVTYHSPGYVYGQFEEKTKYKREPVSLTLALLLGGLTMGGIAAGVGTGTTALVATQQFQQLQAAMQDDLKEVKKSITNLERSLTSLSEVVLQNRRGLDLLFLKEGGLCAALKEECCFYADHTGLVRDSMAKLRERLSQRQKLFESQQGWFEGLFNKSPWFTTLISTIMGPLIILLLILLFGPCILNHLVQFIKDRVSVVQALVLTQQYHQLKTIEDCESRE
With B7 the “Infection of dog cells” value (D17; qualitative) was “not dog cells” and the “Infection of human cells” value (human cells) was “infects human cells”.
